According to article PMC4947157:

What was measured:
[1] = molecular target: T1, FANCD2;FANCI (Homo sapiens;Homo sapiens, UniProt Q9BXW9;Q9NVI1 1-1451;1-1328, |); assay: EMSA; supershifted by anti-HA; 0.5 ug protein, 1 nM DNA; titrated 0.125-0.5 ug; EMSA: 25 mM Tris-HCl pH 7.5, 100 mM NaCl, 6% glycerol, 1 mM DTT, 10 ul, room temperature 1 h; 4% PAGE in 0.4x TBE at 4 C
[2] = molecular target: T1, FANCD2;FANCI; assay: EMSA; 0.5 ug protein, 1 nM DNA; significantly stronger than non-crosslinked fork; titrated 0.125-0.5 ug; EMSA: 25 mM Tris-HCl pH 7.5, 100 mM NaCl, 6% glycerol, 1 mM DTT, 10 ul, room temperature 1 h; 4% PAGE in 0.4x TBE at 4 C

T1 sequence (Q9BXW9 whole entry, chain 1 of 2): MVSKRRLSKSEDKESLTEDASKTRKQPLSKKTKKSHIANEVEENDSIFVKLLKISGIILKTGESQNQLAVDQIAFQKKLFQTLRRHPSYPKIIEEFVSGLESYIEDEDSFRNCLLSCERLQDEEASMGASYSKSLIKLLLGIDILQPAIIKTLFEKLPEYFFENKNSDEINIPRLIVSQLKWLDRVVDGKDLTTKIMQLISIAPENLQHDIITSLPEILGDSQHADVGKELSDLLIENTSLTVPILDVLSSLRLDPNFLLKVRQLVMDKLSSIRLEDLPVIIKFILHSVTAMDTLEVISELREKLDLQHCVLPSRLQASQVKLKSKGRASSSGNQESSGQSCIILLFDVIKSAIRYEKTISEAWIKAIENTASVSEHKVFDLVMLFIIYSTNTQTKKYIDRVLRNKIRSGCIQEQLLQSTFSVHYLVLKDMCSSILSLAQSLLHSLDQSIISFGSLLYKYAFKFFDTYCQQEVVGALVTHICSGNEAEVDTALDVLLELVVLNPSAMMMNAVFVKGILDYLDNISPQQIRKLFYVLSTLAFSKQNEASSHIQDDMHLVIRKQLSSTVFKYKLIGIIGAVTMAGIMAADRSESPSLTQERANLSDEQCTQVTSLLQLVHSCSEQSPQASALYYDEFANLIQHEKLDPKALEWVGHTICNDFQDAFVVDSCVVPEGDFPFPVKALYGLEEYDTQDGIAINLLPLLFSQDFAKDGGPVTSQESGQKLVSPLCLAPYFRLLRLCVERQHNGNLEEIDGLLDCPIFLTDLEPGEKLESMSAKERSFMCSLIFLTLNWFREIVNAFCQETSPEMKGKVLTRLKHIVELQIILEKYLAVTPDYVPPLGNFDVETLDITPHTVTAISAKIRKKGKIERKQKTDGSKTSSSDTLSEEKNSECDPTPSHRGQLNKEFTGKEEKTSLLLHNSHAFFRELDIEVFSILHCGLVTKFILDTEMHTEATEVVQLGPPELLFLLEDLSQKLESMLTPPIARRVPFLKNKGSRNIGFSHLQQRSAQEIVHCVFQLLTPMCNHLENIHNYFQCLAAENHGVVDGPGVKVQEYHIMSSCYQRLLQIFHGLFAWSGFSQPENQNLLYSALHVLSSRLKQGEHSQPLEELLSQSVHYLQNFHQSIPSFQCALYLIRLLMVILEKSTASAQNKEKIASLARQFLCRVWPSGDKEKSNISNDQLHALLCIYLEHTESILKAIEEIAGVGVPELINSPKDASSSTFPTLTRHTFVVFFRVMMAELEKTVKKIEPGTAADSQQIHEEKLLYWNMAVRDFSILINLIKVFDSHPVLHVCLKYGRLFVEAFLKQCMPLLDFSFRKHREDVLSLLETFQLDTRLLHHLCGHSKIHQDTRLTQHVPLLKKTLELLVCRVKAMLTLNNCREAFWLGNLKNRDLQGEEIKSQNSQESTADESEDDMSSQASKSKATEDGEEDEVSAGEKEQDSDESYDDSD
T1 sequence (Q9NVI1 whole entry, chain 2 of 2): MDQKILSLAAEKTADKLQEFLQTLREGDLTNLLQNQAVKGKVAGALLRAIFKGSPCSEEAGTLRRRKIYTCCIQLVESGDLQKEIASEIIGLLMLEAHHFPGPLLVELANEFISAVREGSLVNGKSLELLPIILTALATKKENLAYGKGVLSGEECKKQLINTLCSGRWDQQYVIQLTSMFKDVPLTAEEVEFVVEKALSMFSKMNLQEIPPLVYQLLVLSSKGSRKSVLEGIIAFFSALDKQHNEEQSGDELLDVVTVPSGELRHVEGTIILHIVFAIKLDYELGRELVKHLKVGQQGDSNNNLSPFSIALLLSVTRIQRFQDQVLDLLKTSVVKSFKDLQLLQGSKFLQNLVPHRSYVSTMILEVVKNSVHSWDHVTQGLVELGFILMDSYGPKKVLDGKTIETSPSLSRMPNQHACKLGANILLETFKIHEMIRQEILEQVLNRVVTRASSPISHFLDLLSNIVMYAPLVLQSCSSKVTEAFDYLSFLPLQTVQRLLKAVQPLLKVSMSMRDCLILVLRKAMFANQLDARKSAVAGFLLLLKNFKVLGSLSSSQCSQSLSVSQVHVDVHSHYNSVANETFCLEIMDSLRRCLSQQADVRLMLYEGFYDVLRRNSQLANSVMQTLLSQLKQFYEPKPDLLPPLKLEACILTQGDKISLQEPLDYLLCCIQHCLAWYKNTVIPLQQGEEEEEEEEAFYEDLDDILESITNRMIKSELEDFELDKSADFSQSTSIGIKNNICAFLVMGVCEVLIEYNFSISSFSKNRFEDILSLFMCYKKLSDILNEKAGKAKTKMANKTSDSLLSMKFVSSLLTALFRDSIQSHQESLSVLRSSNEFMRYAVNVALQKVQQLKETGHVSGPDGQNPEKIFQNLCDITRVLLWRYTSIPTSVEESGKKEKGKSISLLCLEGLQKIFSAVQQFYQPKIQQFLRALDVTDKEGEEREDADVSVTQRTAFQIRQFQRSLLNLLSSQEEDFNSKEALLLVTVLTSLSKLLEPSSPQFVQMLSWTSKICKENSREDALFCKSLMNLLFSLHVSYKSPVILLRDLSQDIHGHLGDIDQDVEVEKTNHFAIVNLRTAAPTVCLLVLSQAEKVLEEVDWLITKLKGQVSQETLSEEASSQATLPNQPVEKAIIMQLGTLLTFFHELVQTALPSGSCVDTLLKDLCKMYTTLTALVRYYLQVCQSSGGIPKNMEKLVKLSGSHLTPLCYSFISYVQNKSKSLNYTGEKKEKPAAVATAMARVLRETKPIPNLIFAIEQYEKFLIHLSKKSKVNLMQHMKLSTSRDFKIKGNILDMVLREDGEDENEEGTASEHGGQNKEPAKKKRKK

| Binder | binding result [1] | binding result [2] |
| --- | --- | --- |
| ICL14FF (dsDNA) DNA 1: CATTGTGAATTCGCCTCTCTGTCTAGCCGAAGCTCGAAACGATCTTGTGC DNA 2: GTCCATCAAAGTTCGACTGTGCGGCTAGACAGAGAGGCGAATTCACAATG DNA 3: GCACAAGATCGTTTCGAGCTT DNA 4: GTCGAACTTTGATGGAC | binds |  |
| ICL14FF-XL (dsDNA, 4,5',8-trimethylpsoralen (TMP) interstrand crosslink between S5 and S6; crosslinked bases bold in original, not recoverable from text) DNA 1: CATTGTGAATTCGCCTCTCTGTCTAGCCGAAGCTCGAAACGATCTTGTGC DNA 2: GTCCATCAAAGTTCGACTGTGCGGCTAGACAGAGAGGCGAATTCACAATG DNA 3: GCACAAGATCGTTTCGAGCTT DNA 4: GTCGAACTTTGATGGAC |  | binds |
